Test results from US20210070882A1 (Hoffmann-La Roche, published 2021).
Where a chain is given by its changes, count along the chain named. Values joined by “and” are separate entries in the source; they are usually repeats but may differ in a detail not shown here. Identical values can stand only once. Like-named read-outs stand apart in the source and are kept apart here.

B1: Molecule B: 2+1 IgG CrossFab, inverted, without charge modifications (CH1/CL exchange in CD3 binder, parental murine CD19 binder 8B8) (bispecific antibody)
chain 1: EVQLQQSGPELVKPGASVKMACKASGYTFTDYIMHWVKQKTGQGLEWIGYINPYNDGSKYTEKFNGKATLTSDKSSITAYMELSSLTSEDSAVYYCARGTYYYGSALFDYWGQGTTLTVSSASTKGPSVFPLAPSSKSTSGGTAALGCLVKDYFPEPVTVSWNSGALTSGVHTFPAVLQSSGLYSLSSVVTVPSSSLGTQTYICNVNHKPSNTKVDKKVEPKSCDKTHTCPPCPAPEAAGGPSVFLFPPKPKDTLMISRTPEVTCVVVDVSHEDPEVKFNWYVDGVEVHNAKTKPREEQYNSTYRVVSVLTVLHQDWLNGKEYKCKVSNKALGAPIEKTISKAKGQPREPQVCTLPPSRDELTKNQVSLSCAVKGFYPSDIAVEWESNGQPENNYKTTPPVLDSDGSFFLVSKLTVDKSRWQQGNVFSCSVMHEALHNHYTQKSLSLSP
chain 2: not shown
chain 3: QAVVTQEPSLTVSPGGTVTLTCGSSTGAVTTSNYANWVQEKPGQAFRGLIGGTNKRAPGTPARFSGSLLGGKAALTLSGAQPEDEAEYYCALWYSNLWVFGGGTKLTVLSSASTKGPSVFPLAPSSKSTSGGTAALGCLVKDYFPEPVTVSWNSGALTSGVHTFPAVLQSSGLYSLSSVVTVPSSSLGTQTYICNVNHKPSNTKVDKKVEPKSC
chain 4: DAVMTQTPLSLPVSLGDQASISCRSSQSLENSNGNTYLNWYLQKPGQSPQLLIYRVSKRFSGVLDRFSGSGSGTDFTLKISRVEAEDLGVYFCLQLTHVPYTFGGGTKLEIKRTVAAPSVFIFPPSDEQLKSGTASVVCLLNNFYPREAKVQWKVDNALQSGNSQESVTEQDSKDSTYSLSSTLTLSKADYEKHKVYACEVTHQGLSSPVTKSFNRGEC
notes: also called CD19 TCB_8B8; CD19 TCB_8 B8
B2: DP47 TCB (untargeted TCB having an identical structure as molecule B but with the DP47 binder instead of a CD19 binder) (bispecific antibody)
heavy 1: not shown
heavy 2: not shown
light 1: B1 chain 3
light 2: not shown
notes: Negative control; also called untargeted TCB control; copies: 1 + 1 + 1 + 2
B3: Molecule D: 2+1 IgG CrossFab, inverted, without charge modifications (CH1/CL exchange in CD3 binder, murine CD19 binder 10C1) (bispecific antibody)
chain 1: B1 chain 3
chain 2: EVQLQQSGPELVKPGASVKMSCKASGYTFTSYVMHWVKQKPGQGLEWIGYINPYNDGTKFNEKFKGKATLTSDKSSSTAYMELSSLTSEDSAVYYCTRGVYYYGSSQGDYWGQGTTLTVSSASTKGPSVFPLAPSSKSTSGGTAALGCLVKDYFPEPVTVSWNSGALTSGVHTFPAVLQSSGLYSLSSVVTVPSSSLGTQTYICNVNHKPSNTKVDKKVEPKSCDKTHTCPPCPAPEAAGGPSVFLFPPKPKDTLMISRTPEVTCVVVDVSHEDPEVKFNWYVDGVEVHNAKTKPREEQYNSTYRVVSVLTVLHQDWLNGKEYKCKVSNKALGAPIEKTISKAKGQPREPQVCTLPPSRDELTKNQVSLSCAVKGFYPSDIAVEWESNGQPENNYKTTPPVLDSDGSFFLVSKLTVDKSRWQQGNVFSCSVMHEALHNHYTQKSLSLSP
chain 3: not shown
chain 4: B1 chain 4 with V56I, K58N, L64P, S68N, L96V, Y101W
notes: Same chain layout as molecule B (CD19 VL-CL light chain twice); also called CD19 TCB_10C1; CD19 TCB_10 C1

Tests used:
[1] = target: T1, human CD19 (human, UniProt P15391 20-556); experiment: cell-based or functional assay
T1 sequence (looked up): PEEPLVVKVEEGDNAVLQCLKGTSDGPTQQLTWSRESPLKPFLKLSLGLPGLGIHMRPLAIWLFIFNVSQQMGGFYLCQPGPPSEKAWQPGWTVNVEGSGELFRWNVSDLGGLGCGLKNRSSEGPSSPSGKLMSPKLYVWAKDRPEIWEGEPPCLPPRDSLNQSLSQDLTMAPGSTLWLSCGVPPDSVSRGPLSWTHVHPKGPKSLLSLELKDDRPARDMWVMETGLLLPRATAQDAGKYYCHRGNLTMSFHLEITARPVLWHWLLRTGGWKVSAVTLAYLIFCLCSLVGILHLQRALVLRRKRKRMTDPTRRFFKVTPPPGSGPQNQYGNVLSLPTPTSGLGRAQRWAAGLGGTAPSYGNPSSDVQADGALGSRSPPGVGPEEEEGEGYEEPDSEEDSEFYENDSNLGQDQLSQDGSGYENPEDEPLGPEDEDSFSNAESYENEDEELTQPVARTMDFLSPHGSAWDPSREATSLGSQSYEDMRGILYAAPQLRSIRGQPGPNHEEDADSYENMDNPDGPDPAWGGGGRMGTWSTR

[2] = target: T1, human CD19; experiment: cell-based or functional assay; remark: listed apart in the source
[3] = target: T1, human CD19; experiment: cell-based or functional assay; remark: listed apart in the source
[4] = target: T1, human CD19; experiment: cell-based or functional assay; remark: listed apart in the source
[5] = target: T1, human CD19; experiment: cell-based or functional assay; remark: listed apart in the source
[6] = target: T1, human CD19; experiment: cell-based or functional assay; remark: listed apart in the source
[7] = target: T1, human CD19; experiment: flow cytometry on CD19-expressing Raji cells
Protocol: (§1) The binding of CD19 IgGs and CD19 TCBs to human CD19- and CD3-expressing target cells was tested using CD19-expressing Burkitt's lymphoma cells (Raji) and CD3-expressing immortalized T lymphocyte line (Jurkat). Briefly, cells were harvested, counted, checked for viability and resuspended at 2×10⁶ cells/ml in FACS buffer (100 μl PBS 0.1% BSA). 100 μl of cell suspension (containing 0.2×10⁶ cells) were incubated in round-bottom 96-well plate for 30 min at 4° C. with increasing concentrations of the CD19 IgGs and CD19 TCBs (10 pM-200 nM), washed twice with cold PBS 0.1% BSA, re-incubated for further 30 min at 4° C. with the PE-conjugated AffiniPure F(ab′)2 Fragment goat anti-human IgG Fcg Fragment Specific secondary antibody (Jackson Immuno Research Lab PE #109-116-170), washed twice with cold PBS 0.1% BSA and immediately analyzed by FACS using a FACS Cantoll (Software FACS Diva) by gating live, DAPI-negative, cells.

[8] = target: T1, human CD19; experiment: cell-based or functional assay; remark: listed apart in the source
[9] = target: T1, human CD19; experiment: cell-based or functional assay; remark: listed apart in the source
[10] = target: T1, human CD19; experiment: flow cytometry on Nalm-6 cells and normal human B cells
Protocol: The binding of different CD19 TCB antibody formats (based on 8B8 clone) was assessed on human CD19-expressing target cells (Nalm-6 and normal human B cells) and human CD3-expressing target cells (CD4, CD8 T cells and Jurkat cells). The following CD19 TCB antibody formats were tested: molecule B as shown in FIG. 2B (named in this example “CD19 TCB_2+1_no charges_inverted”) and molecule A as shown in FIG. 2A (named in this example “CD19 TCB_2+1_charges CD19_inverted”). […] Briefly, cells were harvested, counted, checked for viability and resuspended at 1.5×10⁶ cells/ml in FACS buffer (100 μl PBS 0.1% BSA).

[11] = target: T1, human CD19; experiment: flow cytometry on CD19-expressing Raji cells; remark: listed apart in the source
Protocol: as §1

Binder	Tumor cell lysis Z-138 cells (21 h), EC50 [1] [ng/mL]	Tumor cell lysis Z-138 cells (21 h), EC50 (pM) [1] [pM]	Tumor lysis EC50 (pM), Nalm-6 [5] [pM]	Tumor lysis EC50 (pM), SUDHL-4 [5] [pM]	T cell activation EC50 upon Z-138 lysis, CD25/CD4 [6] [pM]	T cell activation EC50 upon Z-138 lysis, CD25/CD8 [6] [pM]	T cell activation EC50 upon Z-138 lysis, CD69/CD4 [6] [pM]	T cell activation EC50 upon Z-138 lysis, CD69/CD8 [6] [pM]	EC50 [7]	T cell activation EC50, CD25/CD4, Nalm-6 [8] [pM]	T cell activation EC50, CD25/CD4, SUDHL-4 [8] [pM]	T cell activation EC50, CD25/CD8, Nalm-6 [8] [pM]	T cell activation EC50, CD25/CD8, SUDHL-4 [8] [pM]	T cell activation EC50, CD69/CD4, Nalm-6 [8] [pM]	T cell activation EC50, CD69/CD4, SUDHL-4 [8] [pM]	T cell activation EC50, CD69/CD8, Nalm-6 [8] [pM]	T cell activation EC50, CD69/CD8, SUDHL-4 [8] [pM]	other results
B1	0.8	4.1	1.7	0.8	2.4	2.4	1.8	2.7	4.1 nM and 0.795 µg/mL	3.3	3.9	0.7	2.1	0.9	2	0.8	2.7	Tumor cell lysis Z-138 cells (21 h), EC50 [2]: 0.62 ng/mL; Tumor cell lysis Z-138 cells (21 h), EC50 (pM) [2]: 3.16 pM; T cell activation EC50 upon lysis of Z-138 cells, CD25/CD4 [3]: 2.77 pM; T cell activation EC50 upon lysis of Z-138 cells, CD25/CD8 [3]: 1.7 pM; T cell activation EC50 upon lysis of Z-138 cells, CD69/CD4 [3]: ~0.81 pM; T cell activation EC50 upon lysis of Z-138 cells, CD69/CD8 [3]: 0.82 pM; T cell activation EC50 upon lysis of Z-138 cells, CD107/CD4 [3]: 1.37 pM; T cell activation EC50 upon lysis of Z-138 cells, CD107/CD8 [3]: 1.22 pM; T cell activation EC50 upon lysis of Z-138 cells, CD25/CD4 [4]: 3.22 pM; T cell activation EC50 upon lysis of Z-138 cells, CD25/CD8 [4]: 1.86 pM; T cell activation EC50 upon lysis of Z-138 cells, CD69/CD4 [4]: 1.01 pM; T cell activation EC50 upon lysis of Z-138 cells, CD69/CD8 [4]: 0.83 pM; T cell activation EC50 upon lysis of Z-138 cells, CD107/CD4 [4]: 1.68 pM; T cell activation EC50 upon lysis of Z-138 cells, CD107/CD8 [4]: 1.32 pM; Tumor cell lysis Z-138 cells (21 h), EC50 [9]: 0.62 ng/mL; Tumor cell lysis Z-138 cells (21 h), EC50 (pM) [9]: 3.2 pM
B2																		binding result [10]: no binding
B3	2.2	11.1	2.1	3.4	6.7	5.9	4.5	5.7	7.7 nM and 1.49 µg/mL	11.8	9.7	3	7.2	5.6	5.2	3.8	10.5	EC50 [11]: 3000 to 8000 pM
